Source: publication PMC12207370, “Macrocyclic Peptide Probes for Immunomodulatory Protein CD59: Potent Modulators of Bacterial Toxin Activity and Antibody‐Dependent Cytotoxicity” (Angewandte Chemie (International Ed. in English), 2025)

Target: T1, biotinylated CD59 (Homo sapiens, UniProt P13987)
T1 construct: Recombinant soluble human CD59 with an additional C-terminal cysteine residue
T1 sequence (P13987 26-102 limits assumed): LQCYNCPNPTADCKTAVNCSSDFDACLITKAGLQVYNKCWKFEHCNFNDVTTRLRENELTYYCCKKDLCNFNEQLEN
Experiment: mRNA-display cyclic peptide screen against CD59-biotin, NGS abundance after 6th selection round
Conditions: for Counts (raw counts for peptide sequence), Seq I: NGS sample Seq I; for Counts (raw counts for peptide sequence), Seq I / Counts (raw counts for peptide sequence), Seq II / Counts Seq I / Counts Seq II: sheet R6 (6th selection round); for Counts (raw counts for peptide sequence), Seq II: NGS sample Seq II; for Percentage of the pool, averaged across the two sequencing samples: average of Seq I and Seq II; for Percentage of the pool, averaged across the two sequencing samples / Percentage of the pool, Seq I / Percentage of the pool, Seq II / Percentage Seq I / Percentage Seq II / Percentage Average: sheet R6; for Percentage of the pool, Seq I: counts normalised by total counts of NGS sample Seq I; for Percentage of the pool, Seq II: counts normalised by total counts of NGS sample Seq II; for Percentage Seq I: counts normalised by total counts of sample Seq I; for Percentage Seq I / Percentage Seq II: percentage of the pool; for Percentage Seq II: counts normalised by total counts of sample Seq II; for Percentage Average: percentage of the pool averaged across the two sequencing samples; for Counts Seq I / Counts Seq II: raw NGS counts of peptide sequence; for Counts Seq I: sequencing sample Seq I; for Counts Seq II: sequencing sample Seq II
Procedure, shortened: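 Peptide–mRNA fusions were made by in vitro translation with a customised PURE express kit. The kit lacked release factor 1 and methionine and was supplemented with […] initiator tRNA carrying N-chloroacetyl-d-tyrosine. Thioether macrocycles were formed, then enriched and amplified over iterative rounds on CD59-biotin immobilised on streptavidin beads. NGS read counts per sequence were recorded after the 6th selection round.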

| Sequence | Counts (raw counts for peptide sequence), Seq I | Counts (raw counts for peptide sequence), Seq II | Percentage of the pool, averaged across the two sequencing samples [%] | Percentage of the pool, Seq I [%] | Percentage of the pool, Seq II [%] | Percentage Seq I [%] | Percentage Seq II [%] | Percentage Average [%] | Counts Seq I | Counts Seq II |
| --- | --- | --- | --- | --- | --- | --- | --- | --- | --- | --- |
| YVFGNRSFARG | 32 | 7 | 0.012 | 0.007 | 0.016 |  |  |  |  |  |
| YIIGSSDYTRG |  |  |  |  |  | 0.033 | 0.039 | 0.036 | 146 | 17 |
| SFAKRVAAQGGC |  |  |  |  |  | 0.030 | 0.021 | 0.026 | 133 | 9 |
| SWQNECFRLRT |  |  |  |  |  | 0.013 | 0.026 | 0.019 | 58 | 11 |
| FVTGNRDHTRG |  |  |  |  |  | 7.311 | 7.094 | 7.203 | 31986 | 3057 |
| LCYVKGSKDFT |  |  |  |  |  | 0.027 | 0.019 | 0.023 | 120 | 8 |
| SWTWGNRNSVRG |  |  |  |  |  | 0.043 | 0.065 | 0.054 | 190 | 28 |
| FVLGNRHTIVG | 57 | 6 | 0.013 | 0.013 | 0.014 |  |  |  |  |  |
| YVTGNRDHTRG | 66 | 8 | 0.017 | 0.015 | 0.019 |  |  |  |  |  |
| FVRGDLNSVLG | 69 | 5 | 0.014 | 0.016 | 0.012 |  |  |  |  |  |
| SWTWGDRSSVRG |  |  |  |  |  | 0.016 | 0.023 | 0.020 | 71 | 10 |
| SARGNRQIQYY |  |  |  |  |  | 0.026 | 0.028 | 0.027 | 114 | 12 |
| FVRGDRYSVLG |  |  |  |  |  | 0.045 | 0.039 | 0.042 | 198 | 17 |
| FVTGNREHTRG |  |  |  |  |  | 0.025 | 0.035 | 0.030 | 110 | 15 |
| CYGGRTFIHAWS |  |  |  |  |  | 0.054 | 0.049 | 0.051 | 237 | 21 |
| GRLNECHVIRP | 43 | 7 | 0.013 | 0.010 | 0.016 |  |  |  |  |  |
| YIRGTQDTFLF | 46 | 7 | 0.013 | 0.011 | 0.016 |  |  |  |  |  |
| SAWGNRRIQYY |  |  |  |  |  | 0.034 | 0.037 | 0.035 | 148 | 16 |

| Sequence | Counts (raw counts for peptide sequence), Seq I | Counts (raw counts for peptide sequence), Seq II | Percentage of the pool, averaged across the two sequencing samples [%] | Percentage of the pool, Seq I [%] | Percentage of the pool, Seq II [%] | Percentage Seq I [%] | Percentage Seq II [%] | Percentage Average [%] | Counts Seq I | Counts Seq II |
| --- | --- | --- | --- | --- | --- | --- | --- | --- | --- | --- |
| CFRNRIDLIS | 49 | 5 | 0.011 | 0.011 | 0.012 |  |  |  |  |  |
| FQYFGTGIAFG |  |  |  |  |  | 0.301 | 0.325 | 0.313 | 1316 | 140 |
| GYLNECHTLYTQ |  |  |  |  |  | 0.034 | 0.051 | 0.043 | 149 | 22 |
| WIYGGRHFRLS | 82 | 2 | 0.012 | 0.019 | 0.00464 |  |  |  |  |  |
| CFSYRIRSAYDL |  |  |  |  |  | 0.028 | 0.030 | 0.029 | 124 | 13 |
| HVFGDRSFTRG |  |  |  |  |  | 0.028 | 0.026 | 0.027 | 124 | 11 |
| SWTWGNRSTVRG |  |  |  |  |  | 0.011 | 0.026 | 0.018 | 49 | 11 |
| STWGNRNETRG |  |  |  |  |  | 0.029 | 0.026 | 0.028 | 129 | 11 |
| CFAKRLSLDAL |  |  |  |  |  | 0.177 | 0.176 | 0.177 | 774 | 76 |
| CFAGRLTIDAAAAAAARTGGG | 62 | 9 | 0.018 | 0.014 | 0.021 |  |  |  |  |  |
| RAWGNRYIAYY |  |  |  |  |  | 0.027 | 0.030 | 0.029 | 119 | 13 |
| FVTGNRDYTRG |  |  |  |  |  | 0.050 | 0.063 | 0.056 | 220 | 27 |
| SAWGNRQTQYY |  |  |  |  |  | 1.151 | 1.160 | 1.156 | 5037 | 500 |
| FIFGNRNWTFG |  |  |  |  |  | 0.021 | 0.021 | 0.021 | 94 | 9 |
| CYGGRSFIYAWS | 47 | 6 | 0.012 | 0.011 | 0.014 |  |  |  |  |  |
| CFAGRLTVDAV |  |  |  |  |  | 0.037 | 0.030 | 0.034 | 163 | 13 |
| WRDRFDRCVL |  |  |  |  |  | 0.020 | 0.032 | 0.026 | 86 | 14 |
